Measurements as given in patent publication US6521740 (IMMUNEX, dated 2003).

Assays:
recombinant human IL-1β = target: T1, recombinant human IL-1β (human, UniProt P01584 117-269); experiment: Inhibition binding assay; soluble receptor (COS-7 supernatant, serially diluted) against 125I-IL-1β binding to CB23 cells; phthalate oil separation
T1 construct: The 17.5 kD size is consistent with the mature form; also called rIL-1β
Procedure: The binding inhibition constant of the soluble human type II IL-1R, expressed and purified as described in Example 2 above, is determined by a inhibition binding assay in which varying concentrations of an IL-1β competitor is incubated with a constant amount of radiolabeled I-IL-1β and CB23 cells (an Epstein Barr virus transformed cord blood B lymphocyte cell line) expressing the type II IL-1R. Binding assays were also performed by a phtahlate oil separation method essentially as describe by Dower et al., *J. Immunol.* 132:751, 1984 and Park et al., *J. Biol. Chem.* 261:4177, 1986. Briefly, COS-7 cells were transfected with the expression vector pDC406 containing a cDNA encoding the soluble human type II IL-1R described above. Supernatants from the COS cells were harvested 3 days after transfection and serially diluted in binding medium (Roswell Park Memorial Institute (RPMI) 1640 medium containing 2% BSA, 20 mM Hepes buffer, and 0.2% sodium azide, pH 7.2) in […] to a volume of 50 μl/well. […] Duplicate 60 μl aliquots of the incubation mixture were then transferred to polyethylene centrifuge tubes containing a phthalate oil mixture comprising 1.5 parts dibutylphthalate, to 1 part bis(s-ethylhexyl)phthalate. […] The radioactivity of the cells was then determined on a gamma counter.

recombinant human IL-1α = target: T2, recombinant human IL-1α (human, UniProt P01583 113-271, limits assumed); experiment: Inhibition binding assay; soluble receptor against IL-1α binding to CB23 cells; same procedure
T2 construct: also called Interleukin-1α
T2 sequence (looked up): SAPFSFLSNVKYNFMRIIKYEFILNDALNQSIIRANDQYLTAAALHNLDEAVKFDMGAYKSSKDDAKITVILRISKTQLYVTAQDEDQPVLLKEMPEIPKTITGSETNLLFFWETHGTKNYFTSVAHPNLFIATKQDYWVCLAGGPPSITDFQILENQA

B1: soluble human type II IL-1R (amino acids -13-333 of SEQ ID NO:1) (receptor)
chain: FTLQPAAHTGAARSCRFRGRHYKREFRLEGEPVALRCPQVPYWLWASVSPRINLTWHKNDSARTVPGEEETRMWAQDGALWLLPALQEDSGTYVCTTRNASYCDKMSIELRVFENTDAFLPFISYPQILTLSTSGVLVCPDLSEFTRDKTDVKIQWYKDSLLLDKDNEKFLSVRGTTHLLVHDVALEDAGYYRCVLTFAHEGQQYNITRSIELRIKKKKEETIPVIISPLKTISASLGSRLTIPCKVFLGTGTPLTTMLWWTANDTHIESAYPGGRVTEGPRQEYSENNENYIEVPLIFDPVTREDLHMDFKCVVHNTLSFQTLRTTVKEASS
notes: It includes 3 amino acids of the predicted transmembrane region (331-356)
- KI (binding inhibition constant, given as an association constant) (recombinant human IL-1β): ~3.5e+09 M⁻¹
- KI (binding inhibition constant, given as an association constant) (recombinant human IL-1α): 1.4e+08 M⁻¹
